{
  "source": "the supplement of paper PMC9112550",
  "about": "“Optimization of the antimicrobial peptide Bac7 by deep mutational scanning” (BMC Biology, 2022);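 also: peptides expressed intracellularly from a pBAD plasmid library in pooled LB shake-flask culture, induced with 0.3% L-arabinose, DNA abundance read by NGS, three biological replicates, DESeq2 with apeglm shrinkage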",
  "data": [
    {"system": "Escherichia coli TOP10", "assay": "shrunken log2 fold change of peptide-encoding DNA abundance (4.5 h post-induction vs induction); higher = less antimicrobial activity (less host growth inhibition)", "settings": "time post-induction: 4.5 h; library: site-saturation at positions 5, 18, 19, 20", "values": [
      {"sequence": "RRIRFRPPRLPRPRPRPFVEPRP", "shrunken log2 fold change": -0.27},
      {"sequence": "RRIRRRPPRLPRPRPRPQYMPRP", "shrunken log2 fold change": -0.234},
      {"sequence": "RRIRGRPPRLPRPRPRPTSTPRP", "shrunken log2 fold change": 1.05},
      {"sequence": "RRIRCRPPRLPRPRPRPVNEPRP", "shrunken log2 fold change": -0.266},
      {"sequence": "RRIRWRPPRLPRPRPRPKSMPRP", "shrunken log2 fold change": -0.0141},
      {"sequence": "RRIRLRPPRLPRPRPRPCHEPRP", "shrunken log2 fold change": 0.0247},
      {"sequence": "RRIRHRPPRLPRPRPRPLMYPRP", "shrunken log2 fold change": -0.711},
      {"sequence": "RRIRIRPPRLPRPRPRPAQTPRP", "shrunken log2 fold change": -0.0145},
      {"sequence": "RRIRKRPPRLPRPRPRPCMEPRP", "shrunken log2 fold change": 0.0223},
      {"sequence": "RRIRFRPPRLPRPRPRPCKPPRP", "shrunken log2 fold change": -0.109},
      {"sequence": "RRIRYRPPRLPRPRPRPLNIPRP", "shrunken log2 fold change": -1.1},
      {"sequence": "RRIRQRPPRLPRPRPRPISIPRP", "shrunken log2 fold change": -0.93},
      {"sequence": "RRIRYRPPRLPRPRPRPKSKPRP", "shrunken log2 fold change": -0.428},
      {"sequence": "RRIRWRPPRLPRPRPRPYLMPRP", "shrunken log2 fold change": -0.319},
      {"sequence": "RRIRTRPPRLPRPRPRPTRCPRP", "shrunken log2 fold change": -0.104},
      {"sequence": "RRIRGRPPRLPRPRPRPFPRPRP", "shrunken log2 fold change": 1.01},
      {"sequence": "RRIRNRPPRLPRPRPRPWQDPRP", "shrunken log2 fold change": -0.112},
      {"sequence": "RRIRPRPPRLPRPRPRPVCIPRP", "shrunken log2 fold change": -0.122},
      {"sequence": "RRIRGRPPRLPRPRPRPFMGPRP", "shrunken log2 fold change": -0.123},
      {"sequence": "RRIRFRPPRLPRPRPRPHGQPRP", "shrunken log2 fold change": -0.0526},
      {"sequence": "RRIRCRPPRLPRPRPRPSFWPRP", "shrunken log2 fold change": -0.0552},
      {"sequence": "RRIRCRPPRLPRPRPRPPETPRP", "shrunken log2 fold change": 0.105},
      {"sequence": "RRIRSRPPRLPRPRPRPGSRPRP", "shrunken log2 fold change": 0.297},
      {"sequence": "RRIRIRPPRLPRPRPRPWRIPRP", "shrunken log2 fold change": -0.409},
      {"sequence": "RRIRVRPPRLPRPRPRPSMQPRP", "shrunken log2 fold change": -0.223},
      {"sequence": "RRIRSRPPRLPRPRPRPPRWPRP", "shrunken log2 fold change": 0.722},
      {"sequence": "RRIRDRPPRLPRPRPRPDRAPRP", "shrunken log2 fold change": 0.281},
      {"sequence": "RRIRYRPPRLPRPRPRPDDGPRP", "shrunken log2 fold change": 0.0672},
      {"sequence": "RRIRDRPPRLPRPRPRPDQIPRP", "shrunken log2 fold change": -0.0336},
      {"sequence": "RRIRGRPPRLPRPRPRPFREPRP", "shrunken log2 fold change": -0.21},
      {"sequence": "RRIRARPPRLPRPRPRPSCAPRP", "shrunken log2 fold change": 0.689},
      {"sequence": "RRIRMRPPRLPRPRPRPAMHPRP", "shrunken log2 fold change": 2.86},
      {"sequence": "RRIRDRPPRLPRPRPRPIEFPRP", "shrunken log2 fold change": 0.144},
      {"sequence": "RRIRDRPPRLPRPRPRPMLPPRP", "shrunken log2 fold change": 0.16},
      {"sequence": "RRIRYRPPRLPRPRPRPYGTPRP", "shrunken log2 fold change": -0.0957},
      {"sequence": "RRIRQRPPRLPRPRPRPCNGPRP", "shrunken log2 fold change": -0.0134},
      {"sequence": "RRIRLRPPRLPRPRPRPETNPRP", "shrunken log2 fold change": 0.467},
      {"sequence": "RRIRCRPPRLPRPRPRPFVHPRP", "shrunken log2 fold change": -0.891},
      {"sequence": "RRIRRRPPRLPRPRPRPIIPPRP", "shrunken log2 fold change": -0.36},
      {"sequence": "RRIRVRPPRLPRPRPRPLFWPRP", "shrunken log2 fold change": 0.139},
      {"sequence": "RRIRQRPPRLPRPRPRPDQYPRP", "shrunken log2 fold change": -0.0114},
      {"sequence": "RRIRLRPPRLPRPRPRPEGAPRP", "shrunken log2 fold change": 0.552},
      {"sequence": "RRIRPRPPRLPRPRPRPEHNPRP", "shrunken log2 fold change": -0.169},
      {"sequence": "RRIRMRPPRLPRPRPRPPKGPRP", "shrunken log2 fold change": 0.873},
      {"sequence": "RRIRWRPPRLPRPRPRPLMLPRP", "shrunken log2 fold change": -0.0143},
      {"sequence": "RRIRERPPRLPRPRPRPDCMPRP", "shrunken log2 fold change": -0.255},
      {"sequence": "RRIRCRPPRLPRPRPRPVPNPRP", "shrunken log2 fold change": -0.26},
      {"sequence": "RRIRVRPPRLPRPRPRPNMGPRP", "shrunken log2 fold change": -0.11},
      {"sequence": "RRIRWRPPRLPRPRPRPRSSPRP", "shrunken log2 fold change": 0.246},
      {"sequence": "RRIRHRPPRLPRPRPRPHVPPRP", "shrunken log2 fold change": 0.084}
    ]}
  ]
}
